Test results reported in IntAct's records for PubMed 31515488.

B1: "N-acyl-aromatic-L-amino acid amidohydrolase (carboxylate-forming)" (Homo sapiens), Q96HD9 (parent)
chain: MCSLPVPREPLRRVAVTGGTHGNEMSGVYLARHWLHAPAELQRASFSAVPVLANPAATSGCRRYVDHDLNRTFTSSFLNSRPTPDDPYEVTRARELNQLLGPKASGQAFDFVLDLHNTTANMGTCLIAKSSHEVFAMHLCRHLQLQYPELSCQVFLYQRSGEESYNLDSVAKNGLGLELGPQPQGVLRADIFSRMRTLVATVLDFIELFNQGTAFPAFEMEAYRPVGVVDFPRTEAGHLAGTVHPQLQDRDFQPLQPGAPIFQMFSGEDLLYEGESTVYPVFINEAAYYEKGVAFVQTEKFTFTVPAMPALTPAPSPAS
partner: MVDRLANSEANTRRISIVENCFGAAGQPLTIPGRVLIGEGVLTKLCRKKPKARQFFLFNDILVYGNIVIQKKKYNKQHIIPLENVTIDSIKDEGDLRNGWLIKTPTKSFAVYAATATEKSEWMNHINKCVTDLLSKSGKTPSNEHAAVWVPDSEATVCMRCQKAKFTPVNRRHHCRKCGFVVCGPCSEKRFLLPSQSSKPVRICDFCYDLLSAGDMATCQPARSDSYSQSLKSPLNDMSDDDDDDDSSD
B2: Transmembrane protein 79 (Homo sapiens), Q9BSE2 (parent)
chain: MTEQETLALLEVKRSDSPEKSSPQALVPNGRQPEGEGGAESPGAESLRVGSSAGSPTAIEGAEDGLDSTVSEAATLPWGTGPQPSAPFPDPPGWRDIEPEPPESEPLTKLEELPEDDANLLPEKAARAFVPIDLQCIERQPQEDLIVRCEAGEGECRTFMPPRVTHPDPTERKWAEAVVRPPGCSCGGCGSCGDREWLRAVASVGAALILFPCLLYGAYAFLPFDVPRLPTMSSRLIYTLRCGVFATFPIVLGILVYGLSLLCFSALRPFGEPRREVEIHRRYVAQSVQLFILYFFNLAVLSTYLPQDTLKLLPLLTGLFAVSRLIYWLTFAVGRSFRGFGYGLTFLPLLSMLMWNLYYMFVVEPERMLTATESRLDYPDHARSASDYRPRPWG
partner: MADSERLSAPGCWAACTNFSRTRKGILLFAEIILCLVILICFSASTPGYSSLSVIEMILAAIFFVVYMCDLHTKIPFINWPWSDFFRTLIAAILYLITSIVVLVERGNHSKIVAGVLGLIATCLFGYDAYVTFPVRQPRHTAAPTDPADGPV
B3: Cyclin-D1-binding protein 1 (Homo sapiens), O95273 (parent)
chain: MASATAPAAAVPTLASPLEQLRHLAEELRLLLPRVRVGEAQETTEEFNREMFWRRLNEAAVTVSREATTLTIVFSQLPLPSPQETQKFCEQVHAAIKAFIAVYYLLPKDQGITLRKLVRGATLDIVDGMAQLMEVLSVTPTQSPENNDLISYNSVWVACQQMPQIPRDNKAAALLMLTKNVDFVKDAHEEMEQAVEECDPYSGLLNDTEENNSDNHNHEDDVLGFPSNQDLYWSEDDQELIIPCLALVRASKACLKKIRMLVAENGKKDQVAQLDDIVDISDEISPSVDDLALSIYPPMCHLTVRINSAKLVSVLKKALEITKASHVTPQPEDSWIPLLINAIDHCMNRIKELTQSELEL
partner: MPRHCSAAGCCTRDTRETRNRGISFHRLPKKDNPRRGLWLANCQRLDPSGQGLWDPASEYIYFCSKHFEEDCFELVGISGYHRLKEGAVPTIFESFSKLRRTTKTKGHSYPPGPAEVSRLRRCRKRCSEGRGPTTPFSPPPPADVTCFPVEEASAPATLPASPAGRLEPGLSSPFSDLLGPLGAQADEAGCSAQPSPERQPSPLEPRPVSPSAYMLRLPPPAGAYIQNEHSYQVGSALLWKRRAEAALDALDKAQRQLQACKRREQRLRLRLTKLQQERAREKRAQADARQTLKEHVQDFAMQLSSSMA
B4: 14-3-3 protein theta (Homo sapiens), P27348 (parent)
chain: MEKTELIQKAKLAEQAERYDDMATCMKAVTEQGAELSNEERNLLSVAYKNVVGGRRSAWRVISSIEQKTDTSDKKLQLIKDYREKVESELRSICTTVLELLDKYLIANATNPESKVFYLKMKGDYFRYLAEVACGDDRKQTIDNSQGAYQEAFDISKKEMQPTHPIRLGLALNFSVFYYEILNNPELACTLAKTAFDEAIAELDTLNEDSYKDSTLIMQLLRDNLTLWTSDSAGEECDAAEGAEN
B5: Programmed cell death 6-interacting protein (Homo sapiens), Q8WUM4 (parent)
chain: MATFISVQLKKTSEVDLAKPLVKFIQQTYPSGGEEQAQYCRAAEELSKLRRAAVGRPLDKHEGALETLLRYYDQICSIEPKFPFSENQICLTFTWKDAFDKGSLFGGSVKLALASLGYEKSCVLFNCAALASQIAAEQNLDNDEGLKIAAKHYQFASGAFLHIKETVLSALSREPTVDISPDTVGTLSLIMLAQAQEVFFLKATRDKMKDAIIAKLANQAADYFGDAFKQCQYKDTLPKEVFPVLAAKHCIMQANAEYHQSILAKQQKKFGEEIARLQHAAELIKTVASRYDEYVNVKDFSDKINRALAAAKKDNDFIYHDRVPDLKDLDPIGKATLVKSTPVNVPISQKFTDLFEKMVPVSVQQSLAAYNQRKADLVNRSIAQMREATTLANGVLASLNLPAAIEDVSGDTVPQSILTKSRSVIEQGGIQTVDQLIKELPELLQRNREILDESLRLLDEEEATDNDLRAKFKERWQRTPSNELYKPLRAEGTNFRTVLDKAVQADGQVKECYQSHRDTIVLLCKPEPELNAAIPSANPAKTMQGSEVVNVLKSLLSNLDEVKKEREGLENDLKSVNFDMTSKFLTALAQDGVINEEALSVTELDRVYGGLTTKVQESLKKQEGLLKNIQVSHQEFSKMKQSNNEANLREEVLKNLATAYDNFVELVANLKEGTKFYNELTEILVRFQNKCSDIVFARKTERDELLKDLQQSIAREPSAPSIPTPAYQSSPAGGHAPTPPTPAPRTMPPTKPQPPARPPPPVLPANRAPSATAPSPVGAGTAAPAPSQTPGSAPPPQAQGPPYPTYPGYPGYCQMPMPMGYNPYAYGQYNMPYPPVYHQSPGQAPYPGPQQPSYPFPQPPQQSYYPQQ

Variants of: B1
Conditions: with pkhf2_human PLEKHF2, Q9H8W4

Question: How did the “effect of a mutation on the interaction” value turn out when R8Q was run?
Answer: The value was “disrupting interaction strength”.

Variants of: B2
Conditions: with plp2_human PLP2, Q04941

Question: For D144G, which “effect of a mutation on the interaction” value is on record?
Answer: The value was “with no effect”.

Question: With S104T as the variant, how does the “effect of a mutation on the interaction” value read?
Answer: Its value is “with no effect”.

Question: Which “effect of a mutation on the interaction” value does the source give for V147M here?
Answer: The value was “with no effect”.

Variants of: B3
Conditions: with thap7_human THAP7, Q9BT49

Question: For I277T, which “effect of a mutation on the interaction” value is on record?
Answer: Its value is “disrupting interaction strength”.

Variants of: B4
Conditions: with tri42_human TRIM42, Q8IWZ5
Sequence of tri42_human TRIM42, Q8IWZ5 (Q8IWZ5 whole entry): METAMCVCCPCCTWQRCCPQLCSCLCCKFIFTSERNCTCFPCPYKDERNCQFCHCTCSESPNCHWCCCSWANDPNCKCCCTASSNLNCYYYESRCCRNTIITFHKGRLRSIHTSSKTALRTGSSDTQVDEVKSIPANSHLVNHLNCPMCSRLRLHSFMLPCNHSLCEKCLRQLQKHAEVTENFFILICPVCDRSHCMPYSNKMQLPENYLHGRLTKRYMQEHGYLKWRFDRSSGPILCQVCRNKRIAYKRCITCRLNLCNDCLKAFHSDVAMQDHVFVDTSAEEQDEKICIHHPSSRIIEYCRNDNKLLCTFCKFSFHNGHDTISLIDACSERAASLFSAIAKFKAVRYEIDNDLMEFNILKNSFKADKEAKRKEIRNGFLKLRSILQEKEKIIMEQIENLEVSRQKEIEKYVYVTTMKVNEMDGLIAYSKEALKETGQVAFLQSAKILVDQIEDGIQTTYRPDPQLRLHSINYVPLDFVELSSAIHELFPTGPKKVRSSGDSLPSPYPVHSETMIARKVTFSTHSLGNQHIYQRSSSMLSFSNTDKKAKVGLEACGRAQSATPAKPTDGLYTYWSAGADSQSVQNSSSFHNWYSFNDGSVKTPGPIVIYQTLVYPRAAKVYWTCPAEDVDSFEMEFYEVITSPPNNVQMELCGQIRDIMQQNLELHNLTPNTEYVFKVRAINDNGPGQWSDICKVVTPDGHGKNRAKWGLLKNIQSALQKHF

Question: A152S was tested. Which “effect of a mutation on the interaction” value did it give?
Answer: Its value is “with no effect”.

Variants of: B5
Conditions: with pdcd6_human PDCD6, O75340
Sequence of pdcd6_human PDCD6, O75340 (O75340 whole entry): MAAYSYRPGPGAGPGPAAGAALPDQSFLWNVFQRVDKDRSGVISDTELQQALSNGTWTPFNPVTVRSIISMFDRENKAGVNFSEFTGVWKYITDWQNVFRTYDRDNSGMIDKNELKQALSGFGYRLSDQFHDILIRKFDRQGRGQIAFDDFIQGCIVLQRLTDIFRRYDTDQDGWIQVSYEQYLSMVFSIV

Question: How did the “effect of a mutation on the interaction” value turn out when A309T was run?
Answer: The value was “with no effect”.

Question: Which “effect of a mutation on the interaction” value does the source give for G429S here?
Answer: Its value is “with no effect”.

Question: G778A was tested. Which “effect of a mutation on the interaction” value did it give?
Answer: The value was “with no effect”.

Question: How did the “effect of a mutation on the interaction” value turn out when N550S was run?
Answer: Its value is “with no effect”.

Question: Which “effect of a mutation on the interaction” value does the source give for S730L here?
Answer: Its value is “with no effect”.
